From publication PMC10403576, “The Ycf48 accessory factor occupies the site of the oxygen-evolving manganese cluster during photosystem II biogenesis” (Nature Communications, 2023)

T1: PsaI subunit of PSI (Synechocystis sp. PCC 6803, UniProt Q55330 1-40)
T1 construct: PsaI of Synechocystis sp; PCC 6803; source: endogenous, Synechocystis sp; PCC 6803 strain His-D2/ΔCP47; co-purified with His-tagged D2 (Ni-NTA, sucrose gradient)
T1 chain (looked up): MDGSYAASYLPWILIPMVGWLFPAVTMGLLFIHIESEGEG

B1: PsbI subunit of PSII (natural protein)
chain: not shown
notes: PsbI of Synechocystis sp; PCC 6803; source: endogenous, Synechocystis sp; PCC 6803 strain His-D2/ΔCP47; co-purified with His-tagged D2 (Ni-NTA, sucrose gradient)
B2: PsbF, beta subunit of Cyt b-559 (natural protein)
chain: not shown
notes: PsbF (cytochrome b-559 beta subunit) of Synechocystis sp; PCC 6803; source: endogenous, Synechocystis sp; PCC 6803 strain His-D2/ΔCP47; co-purified with His-tagged D2 (Ni-NTA, sucrose gradient)

How the values were obtained:
PsaB RC subunit of PSI = target: T2, PsaB RC subunit of PSI (Synechocystis sp. PCC 6803, UniProt P29255 1-731); assay: cryo-EM structure; RCII/PSI complex co-purified from Synechocystis via His-tagged D2; 0.1% FOM; two classes at 3.2 Å and 3.1 Å, PSI-focused map at 2.9 Å; settings: both partners purified
T2 construct: PsaB of Synechocystis sp; PCC 6803; source: endogenous, Synechocystis sp; PCC 6803 strain His-D2/ΔCP47; co-purified with His-tagged D2 (Ni-NTA, sucrose gradient)

PsaI subunit of PSI = target: T1, PsaI subunit of PSI; assay: as above; settings: both partners purified

T2 sequence (P29255 whole entry): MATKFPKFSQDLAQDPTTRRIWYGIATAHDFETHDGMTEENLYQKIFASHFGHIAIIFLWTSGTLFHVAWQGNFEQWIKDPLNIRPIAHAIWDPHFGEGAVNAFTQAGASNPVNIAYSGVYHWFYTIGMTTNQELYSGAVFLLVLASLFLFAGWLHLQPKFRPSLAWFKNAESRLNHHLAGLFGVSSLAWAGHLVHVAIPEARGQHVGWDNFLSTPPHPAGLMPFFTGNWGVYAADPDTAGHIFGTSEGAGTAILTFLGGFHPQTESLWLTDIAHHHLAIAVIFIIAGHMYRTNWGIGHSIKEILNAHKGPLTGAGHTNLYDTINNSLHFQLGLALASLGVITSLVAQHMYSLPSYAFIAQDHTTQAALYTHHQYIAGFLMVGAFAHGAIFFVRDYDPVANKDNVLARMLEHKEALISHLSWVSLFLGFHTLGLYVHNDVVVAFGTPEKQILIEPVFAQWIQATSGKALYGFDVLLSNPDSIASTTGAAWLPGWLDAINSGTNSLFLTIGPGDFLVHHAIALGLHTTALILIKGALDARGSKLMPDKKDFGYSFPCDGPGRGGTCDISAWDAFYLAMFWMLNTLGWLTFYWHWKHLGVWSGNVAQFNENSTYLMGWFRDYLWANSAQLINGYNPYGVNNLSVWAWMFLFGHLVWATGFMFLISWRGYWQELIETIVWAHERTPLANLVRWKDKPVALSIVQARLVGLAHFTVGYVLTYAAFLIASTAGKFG

Binder	binding result (PsaB RC subunit of PSI)	binding result (PsaI subunit of PSI)
B1	binds	
B2		binds
